# US20210268073A1, “METHODS OF REDUCING POLYSORBATE DEGRADATION IN DRUG FORMULATIONS” (Regeneron Pharmaceuticals, Inc., priority 2020, published 2021)
# Conditions: pH 6
molecule,measurement,value
"human liver carboxylesterase 1: commercial human liver carboxylesterase 1 purchased from Abcam, SEQ ID NO: 12 (protein, listed as Homo sapiens) MWLRAFILATLSASAAWGHPSSPPVVDTVHGKVLGKFVSLEGFAQPVAIFLGIPFAKKPLGPLRFTPPQPAEPWSFVKNATSYPPMCTQDPKAGQLLSELFTNRKENIPLKLSEDCLYLNIYTPADLTKKNRLPVMVWIHGGGLMVGAASTYDGLALAAHENVVVVTIQYRLGIWGFFSTGDEHSRGNWGHLDQVAALRWVQDNIASFGGNPGSVTIFGESAGGESVSVLVLSPLAKNLFHRAISESGVALTSVLVKKGDVKPLAEQIAITAGCKTTTSAVMVHCLRQKTEEELLETTLKMKFLSLDLQGDPRESQPLLGTVIDGMLLLKTPEELQAERNFHTVPYMVGINKQEFGWLIPMQLMSYPLSEGQLDQKTAMSLLWKSYPLVCIAKELIPEATEKYLGGTDDTVKKKDLFLDLIADVMFGVPSVIVARNHRDAGAPTYMYEFQYRPSFSSDMKPKTVIGDHGDELFSVFGAPFLKEGASEEEIRLSKMVMKFWANFARNGNPNGEGLPHWPEYNQKEGYLQIGANTQAAQKLKDKEVAFWTNLFAKKAVEKPPQTEHIEL",PS80 degradation pattern compared with mAb-1,equivalent degradation pattern
